{
  "source": "ChEMBL document CHEMBL1240325",
  "about": "“Non-heme dioxygenases: cellular sensors and regulators jelly rolled into one?” (Nat Chem Biol, 2007)",
  "key": {"[1]": {"substrate": "O=C(O)CCC(=O)C(=O)O", "assay": "(§1) Activity of HIF prolyl hydroxylase-2"}, "[2]": {"substrate": "O=C1O[C@H]([C@@H](O)CO)C(O)=C1O", "assay": "as §1"}, "[3]": {"substrate": "O=O", "assay": "as §1"}, "[4]": {"substrate": "O=C(O)CCC(=O)C(=O)O", "assay": "(§2) Activity of HIF prolyl hydroxylase-3"}, "[5]": {"substrate": "O=C1O[C@H]([C@@H](O)CO)C(O)=C1O", "assay": "as §2"}, "[6]": {"substrate": "O=O", "assay": "as §2"}, "[7]": {"substrate": "O=C(O)CCC(=O)C(=O)O", "assay": "(§3) Activity of collagen prolyl 4 hydroxylase-1"}, "[8]": {"substrate": "O=C1O[C@H]([C@@H](O)CO)C(O)=C1O", "assay": "as §3"}, "[9]": {"substrate": "O=O", "assay": "as §3"}, "[10]": {"substrate": "O=C(O)CCC(=O)C(=O)O", "assay": "(§4) Activity of FIH-1"}, "[11]": {"substrate": "O=C1O[C@H]([C@@H](O)CO)C(O)=C1O", "assay": "as §4"}, "[12]": {"substrate": "O=O", "assay": "as §4"}},
  "data": [
    {"protein": "Egl nine homolog 1 (Homo sapiens), Q9GZT9 (protein) MANDSGGPGGPSPSERDRQYCELCGKMENLLRCSRCRSSFYCCKEHQRQDWKKHKLVCQGSEGALGHGVGPHQHSGPAPPAAVPPPRAGAREPRKAAARRDNASGDAAKGKVKAKPPADPAAAASPCRAAAGGQGSAVAAEAEPGKEEPPARSSLFQEKANLYPPSNTPGDALSPGGGLRPNGQTKPLPALKLALEYIVPCMNKHGICVVDDFLGKETGQQIGDEVRALHDTGKFTDGQLVSQKSDSSKDIRGDKITWIEGKEPGCETIGLLMSSMDDLIRHCNGKLGSYKINGRTKAMVACYPGNGTGYVRHVDNPNGDGRCVTCIYYLNKDWDAKVSGGILRIFPEGKAQFADIEPKFDRLLFFWSDRRNPHEVQPAYATRYAITVWYFDADERARAKVKYLTGEKGVRVELNKPSDSVGKDVF", "values": [
      {"measurement": "Km", "setting": "[1]", "value": 2, "unit": "µM"},
      {"measurement": "Km", "setting": "[2]", "value": 180, "unit": "µM"},
      {"measurement": "Km", "setting": "[3]", "value": 100, "unit": "µM"}
    ]},
    {"protein": "Prolyl hydroxylase EGLN3 (Homo sapiens), Q9H6Z9 (protein) MPLGHIMRLDLEKIALEYIVPCLHEVGFCYLDNFLGEVVGDCVLERVKQLHCTGALRDGQLAGPRAGVSKRHLRGDQITWIGGNEEGCEAISFLLSLIDRLVLYCGSRLGKYYVKERSKAMVACYPGNGTGYVRHVDNPNGDGRCITCIYYLNKNWDAKLHGGILRIFPEGKSFIADVEPIFDRLLFFWSDRRNPHEVQPSYATRYAMTVWYFDAEERAEAKKKFRNLTRKTESALTED", "values": [
      {"measurement": "Km", "setting": "[4]", "value": 55, "unit": "µM"},
      {"measurement": "Km", "setting": "[5]", "value": 140, "unit": "µM"},
      {"measurement": "Km", "setting": "[6]", "value": 230, "unit": "µM"}
    ]},
    {"protein": "Prolyl 4-hydroxylase subunit alpha-1 (Homo sapiens), P13674 (protein) MIWYILIIGILLPQSLAHPGFFTSIGQMTDLIHTEKDLVTSLKDYIKAEEDKLEQIKKWAEKLDRLTSTATKDPEGFVGHPVNAFKLMKRLNTEWSELENLVLKDMSDGFISNLTIQRQYFPNDEDQVGAAKALLRLQDTYNLDTDTISKGNLPGVKHKSFLTAEDCFELGKVAYTEADYYHTELWMEQALRQLDEGEISTIDKVSVLDYLSYAVYQQGDLDKALLLTKKLLELDPEHQRANGNLKYFEYIMAKEKDVNKSASDDQSDQKTTPKKKGVAVDYLPERQKYEMLCRGEGIKMTPRRQKKLFCRYHDGNRNPKFILAPAKQEDEWDKPRIIRFHDIISDAEIEIVKDLAKPRLRRATISNPITGDLETVHYRISKSAWLSGYENPVVSRINMRIQDLTGLDVSTAEELQVANYGVGGQYEPHFDFARKDEPDAFKELGTGNRIATWLFYMSDVSAGGATVFPEVGASVWPKKGTAVFWYNLFASGEGDYSTRHAACPVLVGNKWVSNKWLHERGQEFRRPCTLSELE", "values": [
      {"measurement": "Km", "setting": "[7]", "value": 20, "unit": "µM"},
      {"measurement": "Km", "setting": "[8]", "value": 300, "unit": "µM"},
      {"measurement": "Km", "setting": "[9]", "value": 40, "unit": "µM"}
    ]},
    {"protein": "Hypoxia-inducible factor 1-alpha inhibitor (Homo sapiens), Q9NWT6 (protein) MAATAAEAVASGSGEPREEAGALGPAWDESQLRSYSFPTRPIPRLSQSDPRAEELIENEEPVVLTDTNLVYPALKWDLEYLQENIGNGDFSVYSASTHKFLYYDEKKMANFQNFKPRSNREEMKFHEFVEKLQDIQQRGGEERLYLQQTLNDTVGRKIVMDFLGFNWNWINKQQGKRGWGQLTSNLLLIGMEGNVTPAHYDEQQNFFAQIKGYKRCILFPPDQFECLYPYPVHHPCDRQSQVDFDNPDYERFPNFQNVVGYETVVGPGDVLYIPMYWWHHIESLLNGGITITVNFWYKGAPTPKRIEYPLKAHQKVAIMRNIEKMLGEALGNPQEVGPLLNTMIKGRYN", "values": [
      {"measurement": "Km", "setting": "[10]", "value": 25, "unit": "µM"},
      {"measurement": "Km", "setting": "[11]", "value": 260, "unit": "µM"},
      {"measurement": "Km", "setting": "[12]", "value": 90, "unit": "µM"}
    ]}
  ]
}
